From patent US6514747B2 (UT-Battelle, LLC, priority 1993, dated 2003)

Assays:
Type in all cases: cell-based
murine MSH-R = molecular target: T1, murine MSH-R (Mus musculus, UniProt Q01727); assay: α-MSH activation of murine MSH-R in stably transfected 293 cells (adenylyl cyclase); conditions: agouti 0.7 nM
T1 construct: expressed in transfected cells; host or cells: 293 cells, stably transfected

human TSH-receptor = molecular target: T2, human TSH-receptor (Homo sapiens, UniProt P16473); assay: TSH-stimulated adenylyl cyclase in TSH-R-transfected 293 cells; conditions: agouti 0.7 nM
T2 construct: expressed in transfected cells; host or cells: 293 (human embryonic kidney) cells
T2 sequence (P16473 21-764): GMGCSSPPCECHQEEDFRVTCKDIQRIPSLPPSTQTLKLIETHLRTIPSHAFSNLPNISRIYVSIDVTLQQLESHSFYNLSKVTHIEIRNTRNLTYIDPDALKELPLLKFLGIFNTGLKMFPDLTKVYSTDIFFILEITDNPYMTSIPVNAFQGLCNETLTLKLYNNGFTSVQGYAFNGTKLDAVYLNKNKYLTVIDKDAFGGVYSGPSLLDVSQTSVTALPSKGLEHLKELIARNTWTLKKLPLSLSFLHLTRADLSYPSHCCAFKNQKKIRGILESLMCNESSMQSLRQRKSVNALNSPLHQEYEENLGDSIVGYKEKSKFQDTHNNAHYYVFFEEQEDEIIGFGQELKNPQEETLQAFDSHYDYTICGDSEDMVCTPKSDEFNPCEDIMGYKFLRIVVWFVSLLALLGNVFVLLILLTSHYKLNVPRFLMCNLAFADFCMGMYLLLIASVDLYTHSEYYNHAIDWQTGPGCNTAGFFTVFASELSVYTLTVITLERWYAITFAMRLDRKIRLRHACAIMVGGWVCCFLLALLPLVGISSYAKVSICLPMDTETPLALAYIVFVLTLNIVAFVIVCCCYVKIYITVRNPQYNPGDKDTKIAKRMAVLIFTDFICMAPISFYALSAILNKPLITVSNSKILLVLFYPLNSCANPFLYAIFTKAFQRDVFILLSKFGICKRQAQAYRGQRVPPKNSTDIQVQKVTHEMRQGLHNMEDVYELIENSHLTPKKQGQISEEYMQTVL
Description: 293 cells (5×10^5) and 293 cells expressing human TSH-R were preloaded with 5 μCi ^3H-adenine for 1.5 h at 37° C. in a 5% CO2 incubator.
Medium was aspirated and 2.5% perchloric acid containing 0.1 mM cAMP was used to stop the incubation. Adenylyl cyclase activity was calculated by determining the percent conversion of ^3H-adenine to ^3H-cAMP as described (Salomon, 1991; Johnson and Salomon, 1991). Correlation of cAMP accumulation measured in this assay with actual adenylyl cyclase activity is made under the assumption that isobutymethylxanthine effectively blocks cAMP degradation. Data represent means and standard deviations from triplicate data points.

3T3-L1 adipocytes [1] = assay: [Ca2+]i in 3T3-L1 adipocytes (fura 2); conditions: for [Ca2+]i Increase over Baseline: 400 s, n = 8
Description: (§1) The spontaneously fusing L6 skeletal muscle cells [American Type Culture Collection (ATCC), Bethesda, MD] were grown in 75-cm^2 flasks in Dulbecco's modified Eagle's medium with 10% glucose (DMEM) supplemented with 5% fetal bovine serum (FBS, vol/vol), 5% calf serum supplemented iron enriched (CS, vol/vol, and antibiotics (50 U penicillin/ml and 5 μg of streptomycin/ml). Cultures were maintained in continuous passages (<20) by trypsinization (0.05% trypsin) of semiconfluent nonfused cells. A7r5 vascular smooth muscle cells (ATCC) were grown in the same conditions as for L6 cells. 3T3-L1 cells (ATCC) were grown in 100-mm dishes in DMEM containing 10% FBS and antibiotics. For differentiation of fibroblasts into adipocytes, confluent cells were incubated in DMEM-FBS containing 0.5 mM 3-isobutyl-1-methylxanthine (IBMX; Sigma, St. Louis, Mo.) and 0.25 μM dexamethasone (Dex; Sigma) for 60 h. IBMX and Dex were then removed, and cells remained in DMEM-FBS with 250 μg/ml geneticin and compared with nontransfected HEK-293 cells. All types of cells were maintained at 37° C. in an atmosphere containing 5% CO2 and 100% humidity. Cell culture reagents, FBS, CS, and trypsin-EDTA were obtained from GIBCO/BRL (Grand Island, N.Y.).
Viruses incorporating this vector were produced by standard methods (Lu et al., 1994). Spodoptera frugiperda cells (Sf-9) were propagated in Grace's supplemented medium containing 10% CS and 0.1% Pluronic F68 and used to produce […] viral stocks. Fifteen-liter scale production runs of murine or human agouti were produced using T. ni cells adapted to suspension (JRH Biosciences, Woodland, Calif.). T ni cells were infected 24 h postseeding at a density of 10^6 cells/ml, and conditioned media from infected cells were harvested 48 h after infection filtered through a Whatman 3 filter and purified as recently described (Willard et al., 1995).
[Ca^2+]i was measured in L6, A7r5, and HEK-293 cells (Zemel et al., 1995) as previously described and in 3T3-L1 cells as described by Klip and Ramlal (1987). Monolayers of nonfused L6 cells and confluent A7r5 cells after 14-16 h of starvation in a serum-free culture medium were rinsed with Hanks' balanced salt solution (HBSS), detached by incubation in 2 ml trypsin (0.05%) for 2-3 min at 37° C., and released by pipetting without trypsinization. Cells were harvested by centrifugation at 50 g and resuspended in 1 ml HBSS at a density of ˜10^6 cells/ml. […] [Ca^2+]i levels were then measured fluorometrically in suspensions using dual excitation (340 and 380 nm)-single emission (510 nm) fluorometry as previously described (Zemel et al., 1995). [Ca^2+]i was then calculated by the computer in the fluorometer with the equation of Grynkiewicz et al. (1985). […]

rat MC3-R = molecular target: T3, rat MC3-R (Rattus norvegicus, UniProt P32244); assay: α-MSH activation of rat MC3-R in transfected 293 cells (adenylyl cyclase); conditions: agouti 0.7 nM
T3 construct: expressed in transfected cells; host or cells: 293 cells
T3 sequence (P32244 whole entry): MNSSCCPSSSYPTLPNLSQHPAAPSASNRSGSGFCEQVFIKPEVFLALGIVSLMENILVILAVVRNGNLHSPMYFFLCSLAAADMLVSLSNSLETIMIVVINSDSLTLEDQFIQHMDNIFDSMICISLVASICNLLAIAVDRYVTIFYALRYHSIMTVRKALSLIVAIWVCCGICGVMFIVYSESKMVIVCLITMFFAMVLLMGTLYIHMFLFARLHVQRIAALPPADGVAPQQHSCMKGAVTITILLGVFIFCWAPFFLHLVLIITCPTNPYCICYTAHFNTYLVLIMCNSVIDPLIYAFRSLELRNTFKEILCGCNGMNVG

[2] = system: A7r5 vascular smooth muscle cells; assay: [Ca2+]i in A7r5 vascular smooth muscle cells (fura 2); conditions: 400 s, n = 8
Description: as §1, with “IBMX and Dex were then removed, and cells remained in DMEM-FBS with 250 μg/ml geneticin and compared with nontransfected HEK-293 cells. All types of cells were maintained at 37° C. in an atmosphere containing 5% CO2 and 100% humidity. Cell culture reagents, FBS, CS, and trypsin-EDTA were obtained from GIBCO/BRL (Grand Island, N.Y.).” left out
[Ca^2+]i was measured in L6, A7r5, and HEK-293 cells (Zemel et al., 1995) as previously described and in 3T3-L1 cells as described by Klip and Ramlal (1987). […] [Ca^2+]i levels were then measured fluorometrically in suspensions using dual excitation (340 and 380 nm)-single emission (510 nm) fluorometry as previously described (Zemel et al., 1995). [Ca^2+]i was then calculated by the computer in the fluorometer with the equation of Grynkiewicz et al. (1985). […]

3T3-L1 adipocytes [3] = assay: lipogenesis in 3T3-L1 adipocytes (FAS and SCD mRNA, FAS activity, triglyceride content)

T1 sequence (Q01727 whole entry): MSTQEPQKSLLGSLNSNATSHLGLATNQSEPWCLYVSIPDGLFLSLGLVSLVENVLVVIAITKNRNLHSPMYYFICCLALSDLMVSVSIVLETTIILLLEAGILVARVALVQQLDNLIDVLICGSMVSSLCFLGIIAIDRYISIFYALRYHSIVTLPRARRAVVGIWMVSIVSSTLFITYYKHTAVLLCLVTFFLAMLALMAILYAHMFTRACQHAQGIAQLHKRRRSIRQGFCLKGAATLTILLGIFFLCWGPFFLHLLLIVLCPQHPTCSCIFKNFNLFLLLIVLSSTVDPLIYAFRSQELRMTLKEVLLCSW

B1: agouti: recombinant mouse agouti protein (131 amino acids, SEQ ID NO:2) produced with the baculovirus expression system in T. ni cells (protein, listed as Mus musculus)
chain: MDVTRLLLATLVSFLCFFTVHSHLALEETLGDDRSLRSNSSMNSLDFSSVSIVALNKKSKKISRKEAEKRKRSSKKKASMKKVARPPPPSPCVATRDSCKPPAPACCDPCASCQCRFFGSACTCRVLNPNC
- maximally induced activity of the receptor (murine MSH-R): did not alter
- effect on ability of TSH to bind its receptor and stimulate adenylyl cyclase (human TSH-receptor): no effect
- [Ca2+]i Increase over Baseline (3T3-L1 adipocytes [1]; 5 nM Agouti): 73 ± 6 nM
- [Ca2+]i Increase over Baseline (3T3-L1 adipocytes [1]; 25 nM Agouti): 33 ± 6 nM
- [Ca2+]i increase over baseline (plateau) (3T3-L1 adipocytes [1]; 50 nM agouti, 400 s after agouti addition): 73 ± 6 nM
- [Ca2+]i increase (3T3-L1 adipocytes [1]; 50 nM agouti, after 200 s): 44 ± 4 nM
- antagonism of receptor activation (rat MC3-R): did not antagonize
- [Ca2+]i Increase over Baseline ([2]; 5 nM Agouti): 74 ± 6 nM
- [Ca2+]i Increase over Baseline ([2]; 25 nM Agouti): 46 ± 9 nM
- increase in FAS mRNA levels (3T3-L1 adipocytes [3]; 48 h treatment): 1.5 fold
- increase in SCD mRNA levels (3T3-L1 adipocytes [3]; 48 h treatment): 4 fold
- cellular triglyceride content (3T3-L1 adipocytes [3]; agouti, 48 h): 0.104±0.008 mg triglycerides/mg protein
